Assay results published in article PMC9129083.

B1: M1-RNA (ssRNA)
RNA: GAAGAAGAAGAGAAGACCUGAAGA
B2: M2-RNA (ssRNA)
RNA: AACUUCUUCUUUACUUCCUUUCCU
B3: M1-m-RNA (ssRNA)
RNA: AGGAGGCAAGGACCCACCUAGGCA
B4: TaXa21-RNA (ssRNA)
RNA: UUUCCCUAAAGUUUCUUACAAUGAUCUGGUUGAAGCAACAAAG
B5: TaWRKY53-RNA (ssRNA)
RNA: ACUUCUUCUUGUUGUUGCUCCUGCUGC

Biological target: Pst_A23 (Puccinia striiformis f. sp. tritici, UniProt A0A0L0VHF6 =M+36-181, internal_change)
Assay: EMSA

Binder	binding result
B1	binds
B2	binds
B3	no binding
B4	binds
B5	binds
